Sequences and labels used below:
T1: RXFP1 receptor (UniProt Q9HBX9 1-757, limits assumed)
T1 sequence (looked up): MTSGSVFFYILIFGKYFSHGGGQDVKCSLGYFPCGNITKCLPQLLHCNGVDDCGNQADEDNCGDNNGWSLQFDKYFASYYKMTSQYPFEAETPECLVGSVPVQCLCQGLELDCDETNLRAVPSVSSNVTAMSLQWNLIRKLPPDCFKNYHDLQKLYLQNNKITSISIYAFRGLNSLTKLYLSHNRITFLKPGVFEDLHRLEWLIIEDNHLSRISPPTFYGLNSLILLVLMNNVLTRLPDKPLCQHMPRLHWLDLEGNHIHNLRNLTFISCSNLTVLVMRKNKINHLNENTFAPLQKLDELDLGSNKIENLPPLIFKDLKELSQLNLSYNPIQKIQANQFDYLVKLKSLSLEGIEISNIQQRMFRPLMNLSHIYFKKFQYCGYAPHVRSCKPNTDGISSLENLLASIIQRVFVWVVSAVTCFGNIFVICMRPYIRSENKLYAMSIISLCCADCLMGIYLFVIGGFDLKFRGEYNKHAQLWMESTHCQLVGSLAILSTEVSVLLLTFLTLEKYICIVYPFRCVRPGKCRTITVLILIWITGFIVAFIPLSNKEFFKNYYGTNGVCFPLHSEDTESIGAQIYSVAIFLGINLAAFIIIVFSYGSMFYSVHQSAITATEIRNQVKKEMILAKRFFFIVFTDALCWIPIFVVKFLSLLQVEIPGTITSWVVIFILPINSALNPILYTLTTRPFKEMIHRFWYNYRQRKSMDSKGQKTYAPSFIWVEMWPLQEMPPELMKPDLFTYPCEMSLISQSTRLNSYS

B1: peptide of SEQ ID NO: 97 (peptide)
peptide: Ac-LEGREKVRAQI[Aib][Aib]EG[Nle]STWS[Aib]RKKK([PEG12-γGlu-γGlu-γGlu-Stearoyl])-NH2
SMILES: CCCCCCCCCCCCCCCCCC(=O)N[C@@H](CCC(=O)N[C@@H](CCC(=O)N[C@@H](CCC(=O)NCCOCCOCCOCCOCCOCCOCCOCCOCCOCCOCCOCCOCCC(=O)NCCCC[C@H](NC(=O)[C@H](CCCCN)NC(=O)[C@H](CCCCN)NC(=O)[C@H](CCCNC(=N)N)NC(=O)C(C)(C)NC(=O)[C@H](CO)NC(=O)[C@H](Cc1c[nH]c2ccccc12)NC(=O)[C@@H](NC(=O)[C@H](CO)NC(=O)[C@H](CCCC)NC(=O)CNC(=O)[C@H](CCC(=O)O)NC(=O)C(C)(C)NC(=O)C(C)(C)NC(=O)[C@@H](NC(=O)[C@H](CCC(N)=O)NC(=O)[C@H](C)NC(=O)[C@H](CCCNC(=N)N)NC(=O)[C@@H](NC(=O)[C@H](CCCCN)NC(=O)[C@H](CCC(=O)O)NC(=O)[C@H](CCCNC(=N)N)NC(=O)CNC(=O)[C@H](CCC(=O)O)NC(=O)[C@H](CC(C)C)NC(C)=O)C(C)C)[C@@H](C)CC)[C@@H](C)O)C(N)=O)C(=O)O)C(=O)O)C(=O)O
B2: peptide of SEQ ID NO: 9 (peptide)
peptide: Ac-LEGREKVRAQI[Aib][Aib]EG[Nle]STWS[Aib]RKK([γGlu-γGlu-γGlu-Stearoyl])-NH2
SMILES: CCCCCCCCCCCCCCCCCC(=O)N[C@@H](CCC(=O)N[C@@H](CCC(=O)N[C@@H](CCC(=O)NCCCC[C@H](NC(=O)[C@H](CCCCN)NC(=O)[C@H](CCCNC(=N)N)NC(=O)C(C)(C)NC(=O)[C@H](CO)NC(=O)[C@H](Cc1c[nH]c2ccccc12)NC(=O)[C@@H](NC(=O)[C@H](CO)NC(=O)[C@H](CCCC)NC(=O)CNC(=O)[C@H](CCC(=O)O)NC(=O)C(C)(C)NC(=O)C(C)(C)NC(=O)[C@@H](NC(=O)[C@H](CCC(N)=O)NC(=O)[C@H](C)NC(=O)[C@H](CCCNC(=N)N)NC(=O)[C@@H](NC(=O)[C@H](CCCCN)NC(=O)[C@H](CCC(=O)O)NC(=O)[C@H](CCCNC(=N)N)NC(=O)CNC(=O)[C@H](CCC(=O)O)NC(=O)[C@H](CC(C)C)NC(C)=O)C(C)C)[C@@H](C)CC)[C@@H](C)O)C(N)=O)C(=O)O)C(=O)O)C(=O)O

*1 amine or outer side, *2 acyl side, *3 side chain or, on linkers, in order; H or OH if unused. Primed or numbered codes have the meaning given here. Side-chain parts run from the residue outwards. [ ]: non-standard residue; d: D form. The star is where a group is joined. PEG2DGA = 2-[2-[3-[2-[2-(3-aminopropoxy)ethoxy]ethoxy]propylamino-2-oxo-ethoxy]acetyl; PEG12 = NCCOCCOCCOCCOCCOCCOCCOCCOCCOCCOCCOCCOCCC(=O)O; γGlu = O=C(O)[C@H](CCC(=O)[*:2])N[*:1]; 1Nal = N[C@@H](Cc1cccc2ccccc12)C(=O)O; Stearoyl = CCCCCCCCCCCCCCCCCC(=O)*; Palmitoyl = CCCCCCCCCCCCCCCC(=O)*; αMeK = C[C@](N)(CCCCN)C(=O)O; Nle = CCCC[C@H](N)C(=O)O; PEG2′ = PEG2 spacer unit; PEG2″ = not defined here; Aib = CC(C)(N)C(=O)O

The assay concerns the target T1, RXFP1 receptor. Kind of assay: cell-based or functional assay.
As to Ac-LEGREKVRAK(Ac)I[Aib][Aib]EG[Nle]ST[1Nal]S[Aib]RKK(Ac)K([PEG2′-PEG2′-PEG2′-γGlu-γGlu-γGlu-Stearoyl])-NH2 [peptide of SEQ ID NO: 84], the “EC50 (nM), OVCAR 5 cells (cAMP)” value stood at 0.09 nM and the “EMax, OVCAR 5 cells (cAMP)” value was 76%.
Consider Ac-LEGREKVRAQI[Aib][Aib]EG[Nle]STWS[Aib]RKKK([PEG2′-PEG2′-PEG2′-PEG2′-γGlu-γGlu-γGlu-Stearoyl])-NH2 [peptide of SEQ ID NO: 92], for which the “EC50 (nM), OVCAR 5 cells (cAMP)” value turned out to be 0.26 nM and the “EMax, OVCAR 5 cells (cAMP)” value turned out to be 82%.
The corresponding values for Ac-LEGREKVRAQI[Aib][Aib]EG[Nle]STWS[Aib]RK[PEG2″]K([γGlu-γGlu-γGlu-Palmitoyl])-NH2 [peptide of SEQ ID NO: 10] are 18.9 nM and 96%.
For Ac-LEGREKVRAK(Ac)I[Aib][Aib]EG[Nle]STWS[Aib]RKK(Ac)K([PEG2DGA-PEG2DGA-PEG2DGA-γGlu-γGlu-γGlu-Stearoyl])-NH2 [peptide of SEQ ID NO: 96] the same measures were 1.77 nM and 89%.
For Ac-LEGREKVRAQI[Aib][Aib]EG[Nle]STWS[Aib]RKKK([PEG2′-PEG2′-PEG2′-γGlu-γGlu-γGlu-γGlu-Stearoyl])-NH2 [peptide of SEQ ID NO: 88] the same measures were 0.11 nM and 74%.
In the case of Ac-LEGREKVRAK(Ac)I[Aib][Aib]EG[Nle]ST[1Nal]S[Aib]RK(Ac)LK([PEG2′-PEG2′-PEG2′-γGlu-γGlu-γGlu-Stearoyl])-NH2 [peptide of SEQ ID NO: 87], the “EC50 (nM), OVCAR 5 cells (cAMP)” value turned out to be 1.63 nM and the “EMax, OVCAR 5 cells (cAMP)” value was 71%.
Turning to Ac-LEGREKVRAQI[Aib][Aib]EG[Nle]STWS[Aib]RKKK([PEG2′-PEG2′-γGlu-γGlu-γGlu-PEG2′-Stearoyl])-NH2 [peptide of SEQ ID NO: 98], the “EC50 (nM), OVCAR 5 cells (cAMP)” value amounted to 0.74 nM and the “EMax, OVCAR 5 cells (cAMP)” value is 99%.
On to B1, for which the “EC50 (nM), OVCAR 5 cells (cAMP)” value was 4.92 nM and the “EMax, OVCAR 5 cells (cAMP)” value was found to be 98%.
Take Ac-LEGREKVRAK(Ac)I[Aib][Aib]EG[Nle]STWS[Aib]RKK(Ac)K([PEG2′-PEG2′-PEG2′-PEG2′-γGlu-γGlu-γGlu-Stearoyl])-NH2 [peptide of SEQ ID NO: 90]: the “EC50 (nM), OVCAR 5 cells (cAMP)” value turned out to be 0.07 nM and the “EMax, OVCAR 5 cells (cAMP)” value stood at 89%.
The corresponding values for Ac-LEGREKVR[Aib]K(Ac)I[Aib][Aib]EG[Nle]ST[1Nal]S[Aib]RKK([PEG2′-PEG2′-PEG2′-γGlu-γGlu-γGlu-Stearoyl])-NH2 [peptide of SEQ ID NO: 80] are 0.73 nM and 68%.
The corresponding values for Ac-LEGREKVRAK(Ac)I[Aib][Aib]EG[Nle]STWS[Aib]RKK(Ac)K([PEG2DGA-PEG2DGA-γGlu-γGlu-γGlu-Stearoyl])-NH2 [peptide of SEQ ID NO: 95] are 1.03 nM and 87%.
For Ac-LEGREKVRAK(Ac)I[Aib][Aib]EG[Nle]STWS[αMeK]RKK(Ac)K([PEG2′-PEG2′-PEG2′-γGlu-γGlu-γGlu-γGlu-Stearoyl])-NH2 [peptide of SEQ ID NO: 82], the “EC50 (nM), OVCAR 5 cells (cAMP)” value was 0.02 nM and the “EMax, OVCAR 5 cells (cAMP)” value was 89%.
For Ac-LEGREKVR[Aib]K(Ac)I[Aib][Aib]EG[Nle]ST[1Nal]S[Aib]RKK(Ac)K([PEG2′-PEG2′-PEG2′-γGlu-γGlu-γGlu-Stearoyl])-NH2 [peptide of SEQ ID NO: 85] the same measures were 0.77 nM and 75%.
The corresponding values for Ac-LEGREKVRAK(Ac)I[Aib][Aib]EG[Nle]STWS[Aib]RKK(Ac)K([PEG2′-PEG2′-PEG2′-γGlu-γGlu-γGlu-Stearoyl])-NH2 [peptide of SEQ ID NO: 81] are 0.22 nM and 84%.
Ac-LEGREKVRAK(Ac)I[Aib][Aib]EG[Nle]STWS[Aib]RKKK([PEG2′-PEG2′-PEG2′-γGlu-γGlu-γGlu-γGlu-Stearoyl])-NH2 [peptide of SEQ ID NO: 89]: the “EC50 (nM), OVCAR 5 cells (cAMP)” value was determined as 0.03 nM and the “EMax, OVCAR 5 cells (cAMP)” value came out at 79%.
For B2, the “EC50 (nM), OVCAR 5 cells (cAMP)” value is 11.8 nM and the “EMax, OVCAR 5 cells (cAMP)” value was found to be 95%.
Consider Ac-LEGREKVRAK(Ac)I[Aib][Aib]EG[Nle]ST[1Nal]S[Aib]RKK([PEG2″-PEG2″-PEG2″-γGlu-γGlu-γGlu-Stearoyl])-NH2 [peptide of SEQ ID NO: 79], for which the “EC50 (nM), OVCAR 5 cells (cAMP)” value was 0.4 nM and the “EMax, OVCAR 5 cells (cAMP)” value came out at 75%.
As for Ac-LEGREKVRAQI[Aib][Aib]EG[Nle]STWS[Aib]RKKK([PEG2′-PEG2′-γGlu-γGlu-PEG2′-γGlu-Stearoyl])-NH2 [peptide of SEQ ID NO: 99], the “EC50 (nM), OVCAR 5 cells (cAMP)” value worked out at 0.01 nM and the “EMax, OVCAR 5 cells (cAMP)” value was 87%.
Ac-LEGREKVRAQI[Aib][Aib]EG[Nle]STWS[Aib]RKKK([PEG2′-PEG2′-PEG2′-PEG2′-PEG2′-γGlu-γGlu-γGlu-Stearoyl])-NH2 [peptide of SEQ ID NO: 93]: the “EC50 (nM), OVCAR 5 cells (cAMP)” value amounted to 0.14 nM and the “EMax, OVCAR 5 cells (cAMP)” value stood at 87%.
Consider Ac-LEGREKVRAK(Ac)I[Aib][Aib]EG[Nle]STWS[Aib]RKK(Ac)K([PEG2DGA-γGlu-γGlu-γGlu-Stearoyl])-NH2 [peptide of SEQ ID NO: 94], for which the “EC50 (nM), OVCAR 5 cells (cAMP)” value is 2.74 nM and the “EMax, OVCAR 5 cells (cAMP)” value was 90%.
The corresponding values for Ac-LEGREKVRAK(Ac)I[Aib][Aib]EG[Nle]STWS[Aib]RKKK([PEG2′-PEG2′-PEG2′-PEG2′-γGlu-γGlu-γGlu-Stearoyl])-NH2 [peptide of SEQ ID NO: 91] are 0.01 nM and 88%.
The corresponding values for Ac-LEGREKVRAK(Ac)I[Aib][Aib]EG[Nle]STWS[Aib]RKK([PEG2′-PEG2′-PEG2′-γGlu-γGlu-γGlu-Stearoyl])-NH2 [peptide of SEQ ID NO: 83] are 0.85 nM and 92%.
